Results on one molecule are retold here after paper PMC12561412, “Aptamer‐Mediated Artificial Synapses for Neuromorphic Modulation of Inflammatory Signaling via Organic Electrochemical Transistor”.

The target in one data set is interleukin-6 (IL-6) (UniProt P05231 30-212). Description: organic electrochemical transistor, aptamer on Au gate; PBS; linear response 0.5 pM to 50 nM; also in ALB and serum; SPR: PBS-P+ pH 7.4, 5% DMSO, CM5 chip, 30 uL/min, 60 s injections, temperature not stated; OECT: PBS 1x pH 7.4 (also albumin, serum), VDS 0.1 V. The note with it: protein: commercial.
The next data set deals with T1, interleukin-11 (IL-11) (UniProt P20809 22-199).
T1 sequence: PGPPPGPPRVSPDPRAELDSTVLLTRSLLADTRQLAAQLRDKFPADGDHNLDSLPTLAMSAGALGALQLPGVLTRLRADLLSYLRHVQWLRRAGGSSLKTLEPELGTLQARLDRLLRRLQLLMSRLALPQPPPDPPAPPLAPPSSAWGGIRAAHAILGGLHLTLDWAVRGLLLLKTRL
As to the kind of experiment: organic electrochemical transistor, aptamer on Au gate; no noticeable current change; SPR: PBS-P+ pH 7.4, 5% DMSO, CM5 chip, 30 uL/min, 60 s injections, temperature not stated; OECT: PBS 1x pH 7.4 (also albumin, serum), VDS 0.1 V. The note with it: protein: commercial.

The next data set concerns the target interferon-gamma (IFN-γ) (UniProt P01579 24-161). The description is as above. The note with it: protein: commercial; chain copies: 2.

interferon-gamma (IFN-γ), sequence (P01579 24-161): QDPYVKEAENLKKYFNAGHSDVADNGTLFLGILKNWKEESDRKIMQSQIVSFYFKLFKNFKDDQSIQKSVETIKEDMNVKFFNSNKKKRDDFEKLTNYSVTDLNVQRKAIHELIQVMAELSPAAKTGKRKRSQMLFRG
interleukin-6 (IL-6), sequence (P05231 30-212): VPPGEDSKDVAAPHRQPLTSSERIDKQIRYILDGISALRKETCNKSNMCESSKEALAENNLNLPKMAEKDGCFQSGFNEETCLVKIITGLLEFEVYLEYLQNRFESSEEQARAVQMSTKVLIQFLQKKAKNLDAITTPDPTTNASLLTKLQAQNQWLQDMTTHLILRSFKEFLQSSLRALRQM

GGTGGCAGGAGGACTATTTATTTGCTTTTCT (ssDNA, 5' C6 thiol, immobilized on gold via Au-S) [IL-6 aptamer, thiolated, on Au gate]: the binding result in the data set with interleukin-6 (IL-6) is on record as “binds”; with interleukin-11 (IL-11) it was “no binding”; with interferon-gamma (IFN-γ), “no binding”.
